B1: Mt-Ku (Mycobacterium tuberculosis Ku-like protein, ORF Rv0937c), recombinant histidine-tagged (other)
chain: MRAIWTGSIAFGLVNVPVKVYSATADHDIRFHQVHAKDNGRIRYKRVCEACGEVVDYRDLARAYESGDGQMVAITDDDIASLPEERSREIEVLEFVPAADVDPMMFDRSYFLEPDSKSSKSYVLLAKTLAETDRMAIVHFTLRNKTRLAALRVKDFGKREVMMVHTLLWPDEIRDPDFPVLDQKVEIKPAELKMAGQVVDSMADDFNPDRYHDTYQEQLQELIDTKLEGGQAFTAEDQPRLLDEPEDVSDLLAKLEASVKARSKANSNVPTPP

Experiments:
[1] = biological target: Mt-Lig expressed in yeast as amino-terminal Myc epitope-NLS fusion protein (pNLS16) (Mycobacterium tuberculosis) (UniProt P9WNV3); test: cell-based or functional assay
Mt-Lig expressed in yeast as amino-terminal Myc epitope-NLS fusion protein (pNLS16) (Mycobacterium tuberculosis), sequence (P9WNV3 whole entry, the tested form may be a part): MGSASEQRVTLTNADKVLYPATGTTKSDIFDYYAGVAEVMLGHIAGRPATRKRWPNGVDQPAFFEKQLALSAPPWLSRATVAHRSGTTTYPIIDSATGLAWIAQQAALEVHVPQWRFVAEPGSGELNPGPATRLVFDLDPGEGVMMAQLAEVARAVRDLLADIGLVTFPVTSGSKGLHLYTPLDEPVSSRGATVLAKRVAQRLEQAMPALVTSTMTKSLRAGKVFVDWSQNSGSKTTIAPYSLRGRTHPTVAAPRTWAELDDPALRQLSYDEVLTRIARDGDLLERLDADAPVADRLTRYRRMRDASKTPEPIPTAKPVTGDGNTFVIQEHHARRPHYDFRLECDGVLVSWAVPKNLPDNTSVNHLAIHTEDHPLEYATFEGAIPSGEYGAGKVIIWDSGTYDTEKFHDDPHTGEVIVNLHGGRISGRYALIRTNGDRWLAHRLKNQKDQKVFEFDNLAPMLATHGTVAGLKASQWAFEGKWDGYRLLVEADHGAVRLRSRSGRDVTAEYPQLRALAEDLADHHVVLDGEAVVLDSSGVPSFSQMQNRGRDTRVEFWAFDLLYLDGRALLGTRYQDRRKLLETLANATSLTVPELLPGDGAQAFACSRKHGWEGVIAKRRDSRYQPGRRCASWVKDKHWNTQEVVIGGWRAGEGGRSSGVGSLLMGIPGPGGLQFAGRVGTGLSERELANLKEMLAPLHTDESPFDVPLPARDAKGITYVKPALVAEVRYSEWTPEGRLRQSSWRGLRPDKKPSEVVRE

[2] = biological target: Mt-Lig (Mycobacterium tuberculosis ATP-dependent ligase, ORF Rv0938), recombinant histidine-tagged (Mycobacterium tuberculosis, UniProt P9WNV3 1-759); test: cell-based or functional assay
Mt-Lig (Mycobacterium tuberculosis ATP-dependent ligase, ORF Rv0938), recombinant histidine-tagged, sequence (P9WNV3 whole entry): as the sequence (P9WNV3 whole entry, the tested form may be a part) above

Row | Molecule | NHEJ frequency in yku70 mutant yeast (suicide deletion assay) (% of the wild-type yeast level) [1] | DNA ligation activity of Mt-Lig on dsDNA fragments upon addition of Mt-Ku [2] [fold] | activity of Mt-Lig in an in vitro plasmid repair assay [2] [fold]
1 | Mt-Ku expressed in yeast as amino-terminal Myc epitope-NLS fusion protein (pNLS15) (from UniProt P9WKD8 1-273) | 50 |  | 
2 | B1 |  | > 30 | 20
